Test results from patent US20230037911A1 (SHANGHAI HENLIUS BIOTECH, published 2023).

Experiments:
[1] = target: T1, human TIGIT stably expressed on cells (Jurkat; 293T) (human, UniProt Q495A1 22-244); experiment: whole cell binding, flow cytometry, n=3
T1 construct: the expression vector's insert is not described further; also called h-TIGIT; human TIGIT transfected Jurkat cells
T1 sequence: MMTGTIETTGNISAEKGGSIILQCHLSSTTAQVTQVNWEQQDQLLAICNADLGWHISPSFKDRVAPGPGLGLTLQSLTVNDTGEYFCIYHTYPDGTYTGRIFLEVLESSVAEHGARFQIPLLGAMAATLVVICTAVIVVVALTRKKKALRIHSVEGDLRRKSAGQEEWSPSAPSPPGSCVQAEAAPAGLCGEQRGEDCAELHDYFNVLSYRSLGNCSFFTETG

[2] = target: T1, human TIGIT stably expressed on cells …; experiment: flow cytometry, whole cell binding assay on human TIGIT expressing cells (upper panel)
recombinant mouse-TIGIT = target: T2, recombinant mouse-TIGIT (mouse, UniProt P86176 29-148, limits assumed); experiment: ELISA
T2 sequence (looked up): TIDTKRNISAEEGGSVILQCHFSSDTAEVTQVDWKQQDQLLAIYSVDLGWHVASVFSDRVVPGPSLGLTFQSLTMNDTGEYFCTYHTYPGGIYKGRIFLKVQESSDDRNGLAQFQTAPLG

[3] = target: T3, recombinant cynomolgus TIGIT (cyno-TIGIT ECD) (cynomolgus monkey, UniProt A0A7N9I9V4 89-209); experiment: ELISA on recombinant cyno-TIGIT
T3 construct: extracellular domain

[4] = target: T1, human TIGIT stably expressed on cells …; experiment: cell-based or functional assay
[5] = target: T1, human TIGIT stably expressed on cells …; experiment: cell-based or functional assay; remark: listed apart in the source
[6] = target: T4, recombinant human TIGIT extra cellular domain (ECD) protein (human, UniProt Q495A1 22-138); experiment: ELISA on recombinant human TIGIT ECD
T4 construct: Purchased protein; it begins with the signal peptide; also called h-TIGIT ECD; human TIGIT ECD
T4 sequence: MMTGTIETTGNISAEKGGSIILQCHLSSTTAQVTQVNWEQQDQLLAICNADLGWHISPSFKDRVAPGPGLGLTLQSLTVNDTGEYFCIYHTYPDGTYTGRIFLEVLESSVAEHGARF

T3 sequence (A0A7N9I9V4 entry or part of it): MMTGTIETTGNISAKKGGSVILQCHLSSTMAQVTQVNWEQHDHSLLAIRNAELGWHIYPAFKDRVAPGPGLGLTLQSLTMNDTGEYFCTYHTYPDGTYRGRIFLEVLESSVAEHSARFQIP

B1: Bivalent 2A3 antibody (2A3-Fc), 2A3 VHH with human IgG1 CH2 and CH3 domains (Fc fusion)
chain: QVQLVESGGGVVQPGRSLRLSCAASGGSFSSYPMGWFRQAPGKERESVAAISSDMRFTYYADSVKGRFTISRDNSKNTLYLQMNSLRAEDTAVYYCAARDSGVGYYSRAQWYDYWGQGTLVTVSS
notes: Expressed in ExpiCHO, protein A purified; also called 2A3-Fc mAb; 2A3 clone; not shown: human IgG1 CH2 and CH3 domains
With B1 the EC50 [1] was 0.32 nM, the “EC50 (read off the curve)” value [2] was about 0.5 nM and the binding result (recombinant mouse-TIGIT) was “no binding”. The “EC50 (read off the curve)” value [3] was about 0.1 µg/mL, the “EC50 (read off the curve); NFAT reporter activity (RLU), human TIGIT blockade reporter assay (lower panel)” value [4] was about 1 nM and the “EC50, TIGIT blockade NFAT luciferase reporter assay” value [5] was 0.48 nM. The “EC50 (read off the curve)” value [6] was about 0.1 µg/mL.
